According to the DeepSol protein solubility set:

Assay: soluble on expression in E. coli; label from the status in PepcDB or PDB records

**Q.** For “MYNETPIKRRPSTRIYVGNVPIGDGAPIAVQSMTNTKTTDVEATVAQIRALEKVGADIVRVSVPTMDAAEAFKLIKQSVSVPLVADIHFDYRIALKVAEYGVDCLRINPGNIGNEERIRSVVECARDKNIPIRIGVNGGSLEKDLMDKYKEPTPEALLESAMRHVDILDRLNFDQFKVSVKASDVFLAVESYRLLAKQIRQPLHLGITEAGGARAGAVKSAVGLGMLLAEGIGDTLRISLAADPVEEIKVGFDILKSLRIRSRGINFIACPSCSRQEFDVISTVNELERRLEDVTTAMDVSIIGCVVNGPGEALVSHIGLTGGHRKSGYYDEGERQKERFDNDNLVDSLEAKIRAKASQMANRIQVKDTTEAAALEHHHHHH”, which “soluble on expression in E. coli” value is on record?
**A.** Its value is “not soluble”.

**Q.** With “MYPDGLTENEKLKVKELCTMVNISDEDAIKLLKENDWDIAISSRRVSKQEDKTLVPGTSREEIDLDRLSSRLRVHGLAFYLPDFGGFPNEFRTFLEKDLIETQTQKRLEASRHLNWWHQFGQKLYPLSTTGDGNCLLHAASLGMWGVHDRQLSLRETLYELLTNGARKEAIRRRWKWVENHMNQSNGLALTLSENEWELEWDVVLGLSSPLPRKQEDNGSNSTDQIYESLEAIHVFALAHVLKRPVVVVSDTILRNAKGEELSPVAFGGIYLPLECPPSQCHRSPLVLCYDSAHFSPLVLMRTETNNKQIIPIIDVNRNLLPVHFAVDPGESFDWSKLETNSNTQTTTDMSQIDKLALISQYMDIIRLDVRRGSIRSSRRVRSAHAQLLTESRGENGQNLPQKSIKPRDLSAHSSDEQPSNNAKGMTLASSGIGSGRHEKWRLINEIRTHVLRTFRISSSTRGKEKLIDTDDCIARMNSTCVLASELLPTHHQYMDKIINEYMKSAKQRFQQNQRTQSDSRKRISRSFSASSLMLTCIGCDSEFKPASQVTNIMCDQCFAWQKMSVLTSNCDQFMGNSGPPCKSSTLPSFGSNDSNQNDKENIVEVLNVVPKDGAKTLTSMRAVEDENGVVHYYMDDEVADS” as the sequence, how does the “soluble on expression in E. coli” value read?
**A.** The value was “not soluble”.

**Q.** With “MYPIKIIYVYKAMLDKVIDKAGGVLTEAYGDVVKPVLKPIGEVLGFLPRSIKCLLQGWEKWIINGEESIRLTSEAIRKKIEATPAERLTEPEPYVVVPAIQQLGYSHSSEELRELYANLIVSSMDVEKKGLVHPAFVDILKKLTPDEAKIIQYFKGRDFIEYLDLRAYIKEEEGGGFRTIADHKTLLSDEVNFFMPDNELAYLQNLVCLGILKDCEGTFTVIEDNYKLIENKLGLESLRNQYVPEQFSSIRSEKSFYQVTDFGRNFINTVTE” as the sequence, how does the “soluble on expression in E. coli” value read?
**A.** Its value is “not soluble”.

**Q.** Which “soluble on expression in E. coli” value does the source give for “MYPLTLLRISRNRIVELELKNNDQLRGLLHKCDMAMNLHLKSVTIQKEDGSSIFINECYLKGTSIRLVKLESKILLEQREECVSNNKA” here?
**A.** Its value is “not soluble”.

**Q.** Which “soluble on expression in E. coli” value does the source give for “MYPSDFASALESLSLKEMRQAIHRLLDIRDENTWMLFGTLPFYACSPDEDDQKLLRRLRAAKNVTVRNDPDGRSRLNVNIFDGNIIVTDFGDTPPLGNIQTDSLPSAYEKWRETKLAKELSCHCPNVRCLGPNVLVKNSYYQDTDFTKRQARS” here?
**A.** Its value is “not soluble”.

**Q.** With “MYRQALASGEKIFAVAPMIDWTDTRCRFLHRQLSKRALLFTEMIVADAIIHGQREKLLGYHPQEHPVALQLGGSNPAKLAEAVRIAGDYGYDEINLNVGCPSDRVQSGTFGACLMREPEVVAQCISAMKAVAAVPVTVKCRIGVDDQEPETVLPDFLARVVAAGADAVWVHARKAWLQGLSPKENREVPPLDYDLVYRMKRDNPDVFIGINGGIADLDQAGEHLKYVDGVMLGRAAYHNTSILADVDHRIHGEEALQYDWMALRDTMMAYAADYIATGGRLNHVTRHMVGLFQGMPGARRFRQILSSDATRPGAGPEVIEAAFAAIDFNPMKELAG” as the sequence, how does the “soluble on expression in E. coli” value read?
**A.** Its value is “not soluble”.

**Q.** Which “soluble on expression in E. coli” value does the source give for “MYRSHFIADVTPEYDGKEVIWAGWVHLLRDLGGKKFIILRDKTGLGQVVVDKNSSAFGISQELTQESVIQVRGIVKADKRAPRGIELHAEEITLLSKAKAPLPLDVSGKVKADIDTRLRERVLDLRRQEMQAVIKIQSLALKAFRETLYKEGFIEIFTPKIIASATEGGAQLFPVIYFGKEAFLAQSPQLYKELMAGVVERVFEVAPAWRAEESDTPFHLAEFISMDVEMAFADYNDVMQLLEKILHNIVKTIKEEGKEELKILNYEPPEVKIPIKRLKYTEAIEILRSKGYNIKFGDDIGTPELRILNEELKEDLYFIVDWPSDARPFYTKSKSENPELSESFDLIYKFLEIVSGSTRNHKREVLEEALKKKGLKPESFEFFLKWFDYGMPPHAGFGMGLARLMVMLTGIQSVKEIVPFPRDKKRLTP” here?
**A.** The value was “soluble”.

**Q.** Which “soluble on expression in E. coli” value does the source give for “MYSFTTERLMIRPLRAEDEVFYCQLYADSKVMENIGKTITKKQARQWFKRALKALSSPKKSVVTLAIVKKSTNNIIGIQALSWQNTTQILKPCSQKLVQAEIGIMLTTKAQGQGFGKEAIKALMAYGFVYHSLDRINAFYAKKNLASERLFNSLH” here?
**A.** The value was “not soluble”.

**Q.** For “NCHIFKTKAKESQGASPTLGQSEAYHRQNKPYEQQPYGFGVGKKMTSSSKSKVPIFKSFNLKSYQRNHYYSSKKERKHGSPDIDSLFHETNGASKVRMTDAGKMDTNSQFQEIWEILGKNAYTHKSYSEDPNSCLGSALSDHEEEEEAGKQQQQQQQQQQQQQHYGMTSKSSSPDEEKKNNKEPKRESRVSPEENGEEETGHKQFKLPKTSTFSSGSHDSNLQSPFYNHEYRHYARSKFECKNQFRKSVSPIKEIPATTSANEGWNILRDIIEKLNISNVDDRNKDLLFRRDEIGDKNHSDSIDIENLSIKEPKGMKRRKKDDISLEELFQSLPREKDYFMMDAINDSLESINLFKKPKTTQSHEQGGTFAQAESNRAKFKPLLEQCGITPEI”, which “soluble on expression in E. coli” value is on record?
**A.** Its value is “not soluble”.

**Q.** For “NDNRPVFKEGQVEVHIPENAPVGTSVIQLHATDADIGSNAEIRYIFGAQVAPATKRLFALNNTTGLITVQRSLDREETAIHKVTVLASDGSSTPARATVTINVTDVN”, which “soluble on expression in E. coli” value is on record?
**A.** The value was “soluble”.

**Q.** For “NDRFQWTSTLNGTYLKNRVERLSGGENDFINGSSPAAGMVDYATIIKPGEAIGTFWGYEWTGLDEKGHDTYTDVDGNQMIDGGDRKVIGKANPDFTLGWNNSLSYKNWDLNLFFNGSFGAKRLNLVRYTMASAEGNSRFVTLADAYLKGFDKIGSSATYPSLTEGGNNLQPVSTKWLENADFLRLENISLSYTFPKKTTGFADLRLTFSCQNLFTITGYKGMDPAGTTFSNSSVDVDAGIDMGAYPSPRTFTFGLRMNF”, which “soluble on expression in E. coli” value is on record?
**A.** The value was “not soluble”.

**Q.** With “NFCVYMCPYSRVQSVLYDNDTIMTVYDYERGGKVFDPKGIKLWKKPETPNAECTGCELCVKVCPTHIDIRKGMQLECINCLECADAC” as the sequence, how does the “soluble on expression in E. coli” value read?
**A.** Its value is “not soluble”.

**Q.** For “NGSQQQILSNISSMGTNTIDVRPGKGFGDRRSGRVKTLTADDAKSLESLPFVDSVTPSLSNSLTVRYANQDATASVEGVGEDYFRVRGYEIAKGQFWDEESVNSLAQEAVIDDNTRKEMFADRNP”, which “soluble on expression in E. coli” value is on record?
**A.** Its value is “not soluble”.

**Q.** With “NKDGPVCLQVKPCTPEFYQTHFQLAYRLQSRPRGLALVLSNVHFTGEKELEFRSGGDVDHSTLVTLFKLLGYDVHVLCDQTAQEMQEKLQNFAQLPAHRVTDSCIVALLSHGVEGAIYGVDGKLLQLQEVFQLFDNANCPSLQNKPKMFFIQACRGDETDRGVDQQD” as the sequence, how does the “soluble on expression in E. coli” value read?
**A.** The value was “soluble”.

**Q.** With “NKDMEFTLRANFTYSTNKVNYYEEGDTKYEYTSATGRPNGYMKGYIALGLFKDQEEINNSPKQDFGSYLPGDIKYKDVNGDGVVNSDDQVPVSYQDYPRLMYGFGGEFRWKKLTLGVRFSGIGNTDYYKIWTWGSNNVGYIPFYDGKLGNVLTIAANPANRWIPADYDDPSIPASMRENPNAMFPRLSYGSNQNNAQASTFWKGNRKYLRLDEISLNYNCNCNLLKSIGINSIDLAVVANDLHTWDSVKLFDPELATSNGRAYPIPGRVSFQAIVHF” as the sequence, how does the “soluble on expression in E. coli” value read?
**A.** Its value is “not soluble”.

**Q.** Which “soluble on expression in E. coli” value does the source give for “NKMPVIEVQGIVPTEIIVSPRYYRMGFVGGDLSVPVGQFVFRGEAAFNIDKHFTYKSHAEQEGFQTINWLAGADWYAPGEWMISGQFSMESIFRYRDFISQRQHSTLITLNVSKKFFGSTLQLSDFTYYDLTGKGWFSRFAADYALNDQIHLMAGYDWFSSKGSGIFDRYKDNSELWFKARYSF” here?
**A.** The value was “not soluble”.

**Q.** Which “soluble on expression in E. coli” value does the source give for “NKNFTWTSNFNLTYQRALVDKLPEGKDIQYGDGEMYLHREGESMYTFYLPEWKGVNPETGLGEFWLDPEDHSKGVVNDYSEAGKGIVGKALPDVIGGFSNTFTYKDFDLSFLITYQFGGDMFDYPGYFSHHDGVRIGSMNLSEDVAGNYWKNPGDKVDNPMPIYANPYRWDRFSSRTIKSTDNIRLREMTVGYTLPVLKKHISNFRIYFRANNLAMLWSKTKNIDPDVAINGYRQADTPALRSCVFGINIKL” here?
**A.** Its value is “not soluble”.

**Q.** With “NLNMAVSVTPIRDTKWLTLEVCREFQRGTCSRPDTECKFAHPSKSCQVENGRVIACFDSLKGRCSRENCKYLHPPPHLKTQLEINGRNNLIQQKNMAMLAQQMQLANAMMPGAPLQPVPMFSVAPSLATNASAAAFNPYLGPVSPSLVPAEILPTAPMLVTGNPGVPVPAAAAAAAQKLMRTDRLEVCREYQRGNCNRGENDCRFAHPADSTMIDTNDNTVTVCMDYIKGRCSREKCKYFHPPAHLQAKIKAAQYQVNQAAAAQAAATAAAMGIPQAVLPPLPKRPALEKTNGATAVFNTGIFQYQQALANMQLQQHTAFLPPVPMVHGATPATVSAATTSATSVPFAATATANQIPIISAEHLTSHKYVTQM” as the sequence, how does the “soluble on expression in E. coli” value read?
**A.** The value was “soluble”.

**Q.** Which “soluble on expression in E. coli” value does the source give for “NNADYIEMKVPAQPEYVGIIRLTLSGVASRMGYTYDEIEDLKIAVSEACTNAVQHAYKEDKNGEVSIRFGVFEDRLEVIVADEGDSFDFDQKQQDLGPYTPSHTVDQLSEGGLGLYLMETLMDEVRVQNHSGVTVAMTKYLNGERVDHDTTIKNYETN” here?
**A.** The value was “not soluble”.

**Q.** For “NNELSPVALRQMSCAAGTTQTACTDDNALAYYNNSKGGRFVLALLSDHQDLKWARFPKSDGTGTIYTELEPPCRFVTDTPKGPKVKYLYFIKGLNNLNRGMVLESLAATVRLQLEHHHHHH”, which “soluble on expression in E. coli” value is on record?
**A.** The value was “soluble”.

**Q.** With “NNLLYKRWVKQRAADVDKWSDGRLGYVHIQSMGDDSFRSVYSDILGKYNNREGIVIDTRFNGGGRLHEDIEVLFSGKKYFTQVVRGREACDMPSRRWNKPSIMLTCEANYSNAHGTPWVYSHQKLGKLVGMPVPGTMTSVSWERLQDPSLVFGIPVIGYRLPDGSYLENTQLEPDIKVANSPETIVKGEDTQLKTAVEELLKELPAGKGKKH” as the sequence, how does the “soluble on expression in E. coli” value read?
**A.** Its value is “not soluble”.

**Q.** For “NPMSVLLGKAEQLNLLYDKYWDDSMRLNPLQATLQGDAYHGDRMPNFLSAEFRKQHHDFIEKWLKKVEMVGADGLDGQAFISYQIFVRDARNSLHAERYPNWMLPINQFYNIANVAVVLGSGNGAQPFNTVQDYDNWAHRSLGIPALFNQAIVNMRLGMKSGVVQPKVLMEKVIPQLDSIIKPTAEETLFWVPIRNMSVTFSKENRQRITAEYKSIIEYRLLPAYRALRNFIATEYLPVCRDSVGLSALPGGASWYAYTVRQSTTTNMTPEQIHQLGLKEVERLQAEIQSVMRQLNFNGSMQKFFSFMQNNEYFTFGSEKEMLAYYRDLRTRVEARVPALFSLVPKAGFEILPVESFRAPSAAAGSYMPPSSNRRHNGVFYANTNDLSSRRTWNAEKLFLHQGIPGYHFQLGLQQELRNLPKFRRLGGETAFIEGWGLYAESLGKELGLYQDAYNYFGYLQDALSRAIRLVVDTGLHTKGWTRAQVVDYIVENSATSPIEAEAEVDRYIAIPGQALAYKVGELKIHQLRQYAQLTLGPMFDLREFHAEILKDGSVPLDILQQKIERWIAVK”, which “soluble on expression in E. coli” value is on record?
**A.** The value was “not soluble”.

**Q.** For “NRYAKILVEKEKNRRTVMEQKMELESYKKVNVANDRYITLLHDTNHHIKTVYSLLKKDKKDDAMNMLSKLFDKYEKAEMIEYSGNTILNTILSDYKEKSSKENIECDIFVERGFNIEYVDEIDLVAMLSNLLSNSYEAAAKSDMKKIRIQMFMQNDGSFSVIKIENSYTSMIVEEDSVLKTTKQNKEFHGLGIKSVQQIAEKYNGWLSSTWSDNVFKSVLILENSMC”, which “soluble on expression in E. coli” value is on record?
**A.** Its value is “not soluble”.
